B1: Pistol ribozyme (parent)
chain: GGGUCGUUGUUCCAUAAUCGCGUGGAUAUGGCACGCAAGUUUCUACCGGGCACCGUAAAUGUCCGACUGGAGCCGUUCGGGCGGCUAUAAACAGACCUCAGGCCCGAAGCGUGGCGGCACCUGCCGCCGGUGGUAAAAAAGAUCGGAAGAGCACACGUCU

Variants of: B1
Test: aptazyme ON/OFF ratio, guanine; higher = stronger switching; co-transcriptional cleavage with and without guanine

| Variant | aptazyme ON/OFF ratio |
| --- | --- |
| GGGUCGAAAUCGGAUAAUCGCGUGGAUAUGGCACGCAAGUUUCUACCGGGCACCGUAAAUGUCCGACUGGAGCCGUUCGGGCGGCUAUAAACAGACCUCAGGCCCGAAGCGUGGCGGCACCUGCCGCCGGUGGUAAAAAAGAUCGGAAGAGCACACGUCU | 1.14 |
| GGGUCGGCACCAAAUAAUCGCGUGGAUAUGGCACGCAAGUUUCUACCGGGCACCGUAAAUGUCCGACUGGAGCCGUUCGGGCGGCUAUAAACAGACCUCAGGCCCGAAGCGUGGCGGCACCUGCCGCCGGUGGUAAAAAAGAUCGGAAGAGCACACGUCU | 1.2 |
| GGGUCGGUAUUACAUAAUCGCGUGGAUAUGGCACGCAAGUUUCUACCGGGCACCGUAAAUGUCCGACUGGAGCCGUUCGGGCGGCUAUAAACAGACCUCAGGCCCGAAGCGUGGCGGCACCUGCCGCCGGUGGUAAAAAAGAUCGGAAGAGCACACGUCU | 1.25 |
| GGGUCGGAGUAACAUAAUCGCGUGGAUAUGGCACGCAAGUUUCUACCGGGCACCGUAAAUGUCCGACUGGAGCCGUUCGGGCGGCUAUAAACAGACCUCAGGCCCGAAGCGUGGCGGCACCUGCCGCCGGUGGUAAAAAAGAUCGGAAGAGCACACGUCU | 1.25 |
| GGGUCGGCUGAAGAUAAUCGCGUGGAUAUGGCACGCAAGUUUCUACCGGGCACCGUAAAUGUCCGACUGGAGCCGUUCGGGCGGCUAUAAACAGACCUCAGGCCCGAAGCGUGGCGGCACCUGCCGCCGGUGGUAAAAAAGAUCGGAAGAGCACACGUCU | 1.15 |
| GGGUCGAAUUCCCAUAAUCGCGUGGAUAUGGCACGCAAGUUUCUACCGGGCACCGUAAAUGUCCGACUGGAGCCGUUCGGGCGGCUAUAAACAGACCUCAGGCCCGAAGCGUGGCGGCACCUGCCGCCGGUGGUAAAAAAGAUCGGAAGAGCACACGUCU | 1.09 |
| GGGUCGUUCCAUAAUAAUCGCGUGGAUAUGGCACGCAAGUUUCUACCGGGCACCGUAAAUGUCCGACUGGAGCCGUUCGGGCGGCUAUAAACAGACCUCAGGCCCGAAGCGUGGCGGCACCUGCCGCCGGUGGUAAAAAAGAUCGGAAGAGCACACGUCU | 1.08 |
| GGGUCGUUUCCUGAUAAUCGCGUGGAUAUGGCACGCAAGUUUCUACCGGGCACCGUAAAUGUCCGACUGGAGCCGUUCGGGCGGCUAUAAACAGACCUCAGGCCCGAAGCGUGGCGGCACCUGCCGCCGGUGGUAAAAAAGAUCGGAAGAGCACACGUCU | 1.09 |
| GGGUCGGUCAAACAUAAUCGCGUGGAUAUGGCACGCAAGUUUCUACCGGGCACCGUAAAUGUCCGACUGGAGCCGUUCGGGCGGCUAUAAACAGACCUCAGGCCCGAAGCGUGGCGGCACCUGCCGCCGGUGGUAAAAAAGAUCGGAAGAGCACACGUCU | 1.46 |
| GGGUCGAGGCAUUAUAAUCGCGUGGAUAUGGCACGCAAGUUUCUACCGGGCACCGUAAAUGUCCGACUGGAGCCGUUCGGGCGGCUAUAAACAGACCUCAGGCCCGAAGCGUGGCGGCACCUGCCGCCGGUGGUAAAAAAGAUCGGAAGAGCACACGUCU | 1.18 |
| GGGUCGAGUGAAUAUAAUCGCGUGGAUAUGGCACGCAAGUUUCUACCGGGCACCGUAAAUGUCCGACUGGAGCCGUUCGGGCGGCUAUAAACAGACCUCAGGCCCGAAGCGUGGCGGCACCUGCCGCCGGUGGUAAAAAAGAUCGGAAGAGCACACGUCU | 1.48 |
| GGGUCGCGUACGGAUAAUCGCGUGGAUAUGGCACGCAAGUUUCUACCGGGCACCGUAAAUGUCCGACUGGAGCCGUUCGGGCGGCUAUAAACAGACCUCAGGCCCGAAGCGUGGCGGCACCUGCCGCCGGUGGUAAAAAAGAUCGGAAGAGCACACGUCU | 1.27 |
| GGGUCGACCAGAUAUAAUCGCGUGGAUAUGGCACGCAAGUUUCUACCGGGCACCGUAAAUGUCCGACUGGAGCCGUUCGGGCGGCUAUAAACAGACCUCAGGCCCGAAGCGUGGCGGCACCUGCCGCCGGUGGUAAAAAAGAUCGGAAGAGCACACGUCU | 1.11 |
| GGGUCGCUGCAACAUAAUCGCGUGGAUAUGGCACGCAAGUUUCUACCGGGCACCGUAAAUGUCCGACUGGAGCCGUUCGGGCGGCUAUAAACAGACCUCAGGCCCGAAGCGUGGCGGCACCUGCCGCCGGUGGUAAAAAAGAUCGGAAGAGCACACGUCU | 1.53 |
| GGGUCGCGUUCAAAUAAUCGCGUGGAUAUGGCACGCAAGUUUCUACCGGGCACCGUAAAUGUCCGACUGGAGCCGUUCGGGCGGCUAUAAACAGACCUCAGGCCCGAAGCGUGGCGGCACCUGCCGCCGGUGGUAAAAAAGAUCGGAAGAGCACACGUCU | 1.31 |
| GGGUCGACAAGGCAUAAUCGCGUGGAUAUGGCACGCAAGUUUCUACCGGGCACCGUAAAUGUCCGACUGGAGCCGUUCGGGCGGCUAUAAACAGACCUCAGGCCCGAAGCGUGGCGGCACCUGCCGCCGGUGGUAAAAAAGAUCGGAAGAGCACACGUCU | 1.16 |
| GGGUCGGGGCGACAUAAUCGCGUGGAUAUGGCACGCAAGUUUCUACCGGGCACCGUAAAUGUCCGACUGGAGCCGUUCGGGCGGCUAUAAACAGACCUCAGGCCCGAAGCGUGGCGGCACCUGCCGCCGGUGGUAAAAAAGAUCGGAAGAGCACACGUCU | 1.41 |
| GGGUCGCAGAGUCAUAAUCGCGUGGAUAUGGCACGCAAGUUUCUACCGGGCACCGUAAAUGUCCGACUGGAGCCGUUCGGGCGGCUAUAAACAGACCUCAGGCCCGAAGCGUGGCGGCACCUGCCGCCGGUGGUAAAAAAGAUCGGAAGAGCACACGUCU | 1.24 |

Reference: the RNAGym collection of RNA variant scans (doi:10.1021/acssynbio.7b00057)
